Laboratory results: patent US20200216522A1 (DENALI THERAPEUTICS, published 2020)

T1: Peptide_005 (human)
T1 peptide: GDRKDQGGYTMHQDQ

T2: Peptide_045 (human)
T2 peptide: REPKKVAVVRTPPKS

T3: Peptide_010 (human)
T3 peptide: SPLQTPTEDGSEEPG

T4: Peptide_018 (human)
T4 peptide: GKQAAAQPHTEIPEG

T5: Peptide_084 (human)
T5 peptide: SIDMVDSPQLATLAD

T6: Peptide_026 (human)
T6 peptide: RMVSKSKDGTGSDDK

T7: Peptide_076 (human)
T7 peptide: LTFRENAKAKTDHGA

T8: Peptide_083 (human)
T8 peptide: VSSTGSIDMVDSPQL

T9: Peptide_056 (human)
T9 peptide: QIINKKLDLSNVQSK

T10: Peptide_003 (human)
T10 peptide: MEDHAGTYGLGDRKD

T11: Peptide_055 (human)
T11 peptide: GGGKVQIINKKLDLS

T12: Peptide_050 (human)
T12 peptide: APVPMPDLKNVKSKI

T13: Peptide_062 (human)
T13 peptide: VQIVYKPVDLSKVTS

T14: Peptide_004 (human)
T14 peptide: GTYGLGDRKDQGGYT

T15: Peptide_053 (human)
T15 peptide: GSTENLKHQPGGGKV

T16: Peptide_061 (human)
T16 peptide: PGGGSVQIVYKPVDL

T17: Peptide_046 (human)
T17 peptide: VAVVRTPPKSPSSAK

T18: Peptide_021 (human)
T18 peptide: TTAEEAGIGDTPSLE

T19: Peptide_019 (human)
T19 peptide: AQPHTEIPEGTTAEE

T20: Peptide_052 (human)
T20 peptide: VKSKIGSTENLKHQP

T21: Peptide_024 (human)
T21 peptide: DEAAGHVTQARMVSK

T22: Peptide_041 (human)
T22 peptide: GSPGTPGSRSRTPSL

B1: chimeric IgG clone 1D10 (antibody, V domains shown)
VH: EVQLQQSGAELVRPGASVKLSCTASGFNIKDSLMHWMKQRPEQGLEWIGWIDPEDGETKYAPKFQDKATLTADTSSNAAYLQLSSLTSEDTAIYYCVRGDWDGGYWGQGTTLTVSS
VL: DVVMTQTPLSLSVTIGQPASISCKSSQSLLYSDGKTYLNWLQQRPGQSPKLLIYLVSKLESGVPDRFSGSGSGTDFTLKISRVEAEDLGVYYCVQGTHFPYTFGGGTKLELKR
notes: mouse-human chimeric IgG from HEK293
B2: chimeric IgG clone 1G7 (antibody, V domains shown)
VH: EVQLQQSGAEVVRPGASVKLSCTTSGFNIKDSLMHWLKQRPEQGLEWIGWIDPEDGETKYAPKFQDKATITADTSSNTAYLQLSSLTSGDTAIYYCARRDWEGPWGQGTLVTVSA
VL: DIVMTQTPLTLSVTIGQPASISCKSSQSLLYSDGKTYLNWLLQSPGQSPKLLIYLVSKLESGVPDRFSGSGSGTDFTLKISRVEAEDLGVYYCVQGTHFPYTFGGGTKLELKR
notes: as for B1
B3: chimeric IgG clone 1A5 (antibody, V domains shown)
VH: EVQLQQSGAELVRPGASVKLSCTASGFNIKDSLIHWVKQRPEQGLEWIGWIDPEDGETKYAPKFQDKATKTADTSSNTAYLQLSSLTSEDTAIYYCASGEWDYWGQGTSVTVSS
VL: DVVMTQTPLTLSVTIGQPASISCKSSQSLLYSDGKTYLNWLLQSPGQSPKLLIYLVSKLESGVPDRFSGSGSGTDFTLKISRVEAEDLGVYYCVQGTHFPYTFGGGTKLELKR
notes: as for B1

These binders were tested against T23, full-length human Tau (Tau441; 2N4R), recombinant (human, UniProt P10636 1-758) (assay: SPR Biacore, IgG captured, r-Tau injected).
T23 construct: made in E. coli, His6-Smt3 tag removed; biotinylated through amines for Octet and phage work; also called r-Tau; recombinant Tau
Description: The affinity of chimeric IgG antibodies 1C7, 1A1, 1A5, 1D10, and 1G7 for recombinant Tau was determined by surface plasmon resonance using a Biacore™ T200 instrument. Biacore™ Series S CM5 sensor chips were immobilized with monoclonal mouse anti-human IgG (Fc) antibody (human antibody capture kit from GE Healthcare). 1 μg/mL of antibody was captured for 1 minute on each flow cell and serial 3-fold dilutions of recombinant Tau were injected at a flow rate of […]. Each sample was analyzed with a 3-minute association and a 10-minute dissociation. After each injection the chip was regenerated using 3M MgCl₂. Binding response was corrected by subtracting the RU from a flow cell capturing an irrelevant IgG at similar density. A 1:1 Languir model of simultaneous fitting of kₒₙ and koff was used for kinetics analysis.

T23 sequence (P10636 other isoform, or with tags, fused parts or gaps limits assumed): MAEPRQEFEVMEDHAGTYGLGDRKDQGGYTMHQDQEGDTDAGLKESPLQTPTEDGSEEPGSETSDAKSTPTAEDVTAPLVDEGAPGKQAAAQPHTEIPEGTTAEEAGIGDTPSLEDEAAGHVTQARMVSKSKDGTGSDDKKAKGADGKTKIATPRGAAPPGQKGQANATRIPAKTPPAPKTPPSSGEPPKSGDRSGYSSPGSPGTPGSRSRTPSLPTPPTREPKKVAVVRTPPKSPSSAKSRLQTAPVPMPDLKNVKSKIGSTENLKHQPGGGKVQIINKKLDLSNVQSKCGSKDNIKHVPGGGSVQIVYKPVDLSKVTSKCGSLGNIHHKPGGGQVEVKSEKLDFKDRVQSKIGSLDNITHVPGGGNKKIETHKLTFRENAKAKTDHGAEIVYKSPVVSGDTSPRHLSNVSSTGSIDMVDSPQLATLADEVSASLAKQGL

**Q.** For B1, which Kd is on record?
**A.** 0.2 nM

**Q.** B2 was tested. Which Kd did it give?
**A.** 0.1 nM

**Q.** With B3 as the binder, how does the Kd read?
**A.** 0.2 nM

Target: T1, Peptide_005
Experiment: peptide array
Description: (§1) Chimeric IgG antibodies were diluted to a concentration of 5 μg/mL in 3% bovine serum albumin in Tris-buffered saline (10 mM Tris, pH 7.5, 150 mM NaCl) supplemented with 0.05% Tween®20 (3% BSA-TBST). Diluted antibodies were allowed to bind to peptides printed onto slides for 2 hours at room temperature as described in the PepStar™ user manual (JPT Technologies). Following extensive washing (5×5 minutes with TBST), slides were incubated with secondary antibodies goat anti-human IgG, Alexa Fluor 568 conjugate, 1 μg/mL in 3% BSA-TBST) for 1 hour at room temperature. After extensive washing, (5×5 minutes with TBST, then 5×5 minutes with ultrapure water), slides were dried overnight and imaged using an Opera Phenix™ system in the 568 nm channel. Images were aligned to peptide array definition files using Galviewer software obtained from JPT Technologies and ImageJ software with control human IgG serving as landmarks.
(§2) Full-length human Tau (encoded by the microtubule-associated protein Tau isoform 2 gene (MAPT), amino acid sequence NCBI Reference Sequence No. NP_005901.2, SEQ ID NO: 1, variant designation “2N4R”) was divided into 15 amino acid peptides, offset by 5 amino acids (overlapping by 10 amino acids). Peptides were synthesized and covalently attached to silica slides in triplicate with a spot size of 0.5 mm (obtained from JPT Technologies, Berlin, Germany). Antibodies muIgG were diluted to a concentration of 30 μg/mL in 3% bovine serum albumin in Tris-buffered saline (10 mM Tris, pH 7.5, 150 mM NaCl) supplemented with 0.05% Tween® 20 (3% BSA-TBST). Diluted antibodies were allowed to bind to peptides printed onto slides for 2 hours at room temperature as described in the Pepstar™ user manual (JPT Technologies). Following extensive washing (5×5 min TBST), slides were incubated with secondary antibodies (donkey anti-mouse IgG, Alexafluor 647 conjugate, 5 μg/mL in 3% BSA-TBST) for 1 hour at room temperature. After extensive washing, (5×5 minutes TBST, 5×5 minutes ultrapure water), slides were dried under a stream of nitrogen and imaged on the Opera Phenix in the 647 nm channel. Images were aligned to peptide array definition file using Galviewer software obtained from JPT Technologies and ImageJ software with control mouse IgG serving as landmarks.

**Q.** Does B1 bind?
**A.** no binding (tested: 5 ug/mL)

**Q.** Does B2 bind?
**A.** no binding (tested: 5 ug/mL)

**Q.** Does B3 bind?
**A.** no binding (tested: 5 ug/mL)

Target: T2, Peptide_045
Experiment: peptide array
Description: as §1, §2

**Q.** Does B1 bind?
**A.** no binding (tested: 5 ug/mL)

**Q.** Does B2 bind?
**A.** no binding (tested: 5 ug/mL)

**Q.** Does B3 bind?
**A.** no binding (tested: 5 ug/mL)

Target: T3, Peptide_010
Experiment: peptide array
Description: as §1, §2

**Q.** Does B1 bind?
**A.** no binding (tested: 5 ug/mL)

**Q.** Does B2 bind?
**A.** no binding (tested: 5 ug/mL)

**Q.** Does B3 bind?
**A.** no binding (tested: 5 ug/mL)

Target: T4, Peptide_018
Experiment: peptide array
Description: as §1, §2

**Q.** Does B1 bind?
**A.** no binding (tested: 5 ug/mL)

**Q.** Does B2 bind?
**A.** no binding (tested: 5 ug/mL)

**Q.** Does B3 bind?
**A.** no binding (tested: 5 ug/mL)

Target: T5, Peptide_084
Experiment: peptide array
Description: as §1, §2

**Q.** Does B1 bind?
**A.** no binding (tested: 5 ug/mL)

**Q.** Does B2 bind?
**A.** no binding (tested: 5 ug/mL)

**Q.** Does B3 bind?
**A.** no binding (tested: 5 ug/mL)

Target: T6, Peptide_026
Experiment: peptide array
Description: as §1, §2

**Q.** Does B1 bind?
**A.** no binding (tested: 5 ug/mL)

**Q.** Does B2 bind?
**A.** no binding (tested: 5 ug/mL)

**Q.** Does B3 bind?
**A.** no binding (tested: 5 ug/mL)

Target: T7, Peptide_076
Experiment: peptide array
Description: as §1, §2

**Q.** Does B1 bind?
**A.** no binding (tested: 5 ug/mL)

**Q.** Does B2 bind?
**A.** no binding (tested: 5 ug/mL)

**Q.** Does B3 bind?
**A.** no binding (tested: 5 ug/mL)

Target: T8, Peptide_083
Experiment: peptide array
Description: as §1, §2

**Q.** Does B1 bind?
**A.** no binding (tested: 5 ug/mL)

**Q.** Does B2 bind?
**A.** no binding (tested: 5 ug/mL)

**Q.** Does B3 bind?
**A.** no binding (tested: 5 ug/mL)

Target: T9, Peptide_056
Experiment: peptide array
Description: as §1, §2

**Q.** Does B1 bind?
**A.** no binding (tested: 5 ug/mL)

**Q.** Does B2 bind?
**A.** no binding (tested: 5 ug/mL)

**Q.** Does B3 bind?
**A.** no binding (tested: 5 ug/mL)

Target: T10, Peptide_003
Experiment: peptide array
Description: as §1, §2

**Q.** Does B1 bind?
**A.** no binding (tested: 5 ug/mL)

**Q.** Does B2 bind?
**A.** no binding (tested: 5 ug/mL)

**Q.** Does B3 bind?
**A.** no binding (tested: 5 ug/mL)

Target: T11, Peptide_055
Experiment: peptide array
Description: as §1, §2

**Q.** Does B1 bind?
**A.** no binding (tested: 5 ug/mL)

**Q.** Does B2 bind?
**A.** no binding (tested: 5 ug/mL)

**Q.** Does B3 bind?
**A.** no binding (tested: 5 ug/mL)

Target: T12, Peptide_050
Experiment: peptide array
Description: as §1, §2

**Q.** Does B1 bind?
**A.** no binding (tested: 5 ug/mL)

**Q.** Does B2 bind?
**A.** no binding (tested: 5 ug/mL)

**Q.** Does B3 bind?
**A.** no binding (tested: 5 ug/mL)

Target: T13, Peptide_062
Experiment: peptide array
Description: as §1, §2

**Q.** Does B1 bind?
**A.** no binding (tested: 5 ug/mL)

**Q.** Does B2 bind?
**A.** no binding (tested: 5 ug/mL)

**Q.** Does B3 bind?
**A.** no binding (tested: 5 ug/mL)

Target: T14, Peptide_004
Experiment: peptide array
Description: as §1, §2

**Q.** Does B1 bind?
**A.** no binding (tested: 5 ug/mL)

**Q.** Does B2 bind?
**A.** no binding (tested: 5 ug/mL)

**Q.** Does B3 bind?
**A.** no binding (tested: 5 ug/mL)

Target: T15, Peptide_053
Experiment: peptide array
Description: as §1, §2

**Q.** Does B1 bind?
**A.** no binding (tested: 5 ug/mL)

**Q.** Does B2 bind?
**A.** no binding (tested: 5 ug/mL)

**Q.** Does B3 bind?
**A.** no binding (tested: 5 ug/mL)

Target: T16, Peptide_061
Experiment: peptide array
Description: as §1, §2

**Q.** Does B1 bind?
**A.** no binding (tested: 5 ug/mL)

**Q.** Does B2 bind?
**A.** no binding (tested: 5 ug/mL)

**Q.** Does B3 bind?
**A.** no binding (tested: 5 ug/mL)

Target: T17, Peptide_046
Experiment: peptide array
Description: as §1, §2

**Q.** Does B1 bind?
**A.** no binding (tested: 5 ug/mL)

**Q.** Does B2 bind?
**A.** no binding (tested: 5 ug/mL)

**Q.** Does B3 bind?
**A.** no binding (tested: 5 ug/mL)

Target: T18, Peptide_021
Experiment: peptide array
Description: as §1, §2

**Q.** Does B1 bind?
**A.** no binding (tested: 5 ug/mL)

**Q.** Does B2 bind?
**A.** no binding (tested: 5 ug/mL)

**Q.** Does B3 bind?
**A.** no binding (tested: 5 ug/mL)

Target: T19, Peptide_019
Experiment: peptide array
Description: as §1, §2

**Q.** Does B1 bind?
**A.** no binding (tested: 5 ug/mL)

**Q.** Does B2 bind?
**A.** no binding (tested: 5 ug/mL)

**Q.** Does B3 bind?
**A.** no binding (tested: 5 ug/mL)

Target: T20, Peptide_052
Experiment: peptide array
Description: as §1, §2

**Q.** Does B1 bind?
**A.** binds

**Q.** Does B2 bind?
**A.** binds

**Q.** Does B3 bind?
**A.** binds

Target: T21, Peptide_024
Experiment: peptide array
Description: as §1, §2

**Q.** Does B1 bind?
**A.** no binding (tested: 5 ug/mL)

**Q.** Does B2 bind?
**A.** no binding (tested: 5 ug/mL)

**Q.** Does B3 bind?
**A.** no binding (tested: 5 ug/mL)

Target: T22, Peptide_041
Experiment: peptide array
Description: as §1, §2

**Q.** Does B1 bind?
**A.** no binding (tested: 5 ug/mL)

**Q.** Does B2 bind?
**A.** no binding (tested: 5 ug/mL)

**Q.** Does B3 bind?
**A.** no binding (tested: 5 ug/mL)

Each binder was assayed against T23, full-length human Tau (Tau441; 2N4R), … (assay: Octet binning on biotin-r-Tau; competitor 1A5).
Description: Epitope binning assays were performed using a FortéBio® Octet® RED384 instrument using FortéBio® Streptavidin biosensors. Biotinylated recombinant Tau was diluted to a concentration of 2 μg/mL in kinetic buffer (obtained from FortéBio®) and captured onto individual biosensors for 1 minute. A baseline was then established for 1 minute in kinetic buffer. The loaded biosensors were dipped into 10 μg/mL of the first chimeric IgG antibody until signal saturation, followed by dipping into 1 μg/mL of a second antibody. The binding for the second antibody was normalized to its total binding in the absence of the first antibody.

**Q.** How did the “normalized binding of second antibody” value turn out when B1 was run?
**A.** -0.07

**Q.** For B2, which “normalized binding of second antibody” value is on record?
**A.** -0.04

**Q.** B3 was tested. Which “normalized binding of second antibody” value did it give?
**A.** -0.13
